Experimental data from paper PMC5505994 (Scientific Reports, 2017).

B1: alkyl hydroperoxide reductase subunit C (AhpC) from Mycobacterium bovis (BCG strain), wild type (enzyme)
chain: MPLLTIGDQFPAYQLTALIGGDLSKVDAKQPGDYFTTITSDEHPGKWRVVFFWPKDFTFVCPTEIAAFSKLNDEFEDRDAQILGVSIDSEFAHFQWRAQHNDLKTLPFPMLSDIKRELSQAAGVLNADGVADRVTFIVDPNNEIQFVSATAGSVGRNVDEVLRVLDALQSDELCACNWRKGDPTLDAGELLKASA

Tests used:
[1] = molecular target: the molecule itself; assay: SEC
[2] = molecular target: B1; assay: NMR titration; settings: both partners purified
[3] = molecular target: the molecule itself; assay: negative-stain electron microscopy with 2D classification

Binder	stoichiometry N [1]	binding result [2]	stoichiometry N [3]
MbAhpC with deletion of the loop residues 23 to 34 (enzyme) MPLLTIGDQFPAYQLTALIGGDFTTITSDEHPGKWRVVFFWPKDFTFVCPTEIAAFSKLNDEFEDRDAQILGVSIDSEFAHFQWRAQHNDLKTLPFPMLSDIKRELSQAAGVLNADGVADRVTFIVDPNNEIQFVSATAGSVGRNVDEVLRVLDALQSDELCACNWRKGDPTLDAGELLKASA	2	–	–
Mycobacterium bovis thioredoxin TrxC (natural protein) MTDSEKSATIKVTDASFATDVLSSNKPVLVDFWATWCGPCKMVAPVLEEIATERATDLTVAKLDVDTNPETARNFQVVSIPTLILFKDGQPVKRIVGAKGKAALLRELSDVVPNLN	–	binds	–
B1	2	–	12
